Experiments:
[1] = biological target: T1, huEpCAM.Fc (human EpCAM antigen construct) (human, UniProt P16422 24-265, limits assumed); assay: BLI (Octet QKe), antigen-Fc captured on AHC biosensor
T1 construct: not shown: human IgG Fc
T1 sequence (looked up): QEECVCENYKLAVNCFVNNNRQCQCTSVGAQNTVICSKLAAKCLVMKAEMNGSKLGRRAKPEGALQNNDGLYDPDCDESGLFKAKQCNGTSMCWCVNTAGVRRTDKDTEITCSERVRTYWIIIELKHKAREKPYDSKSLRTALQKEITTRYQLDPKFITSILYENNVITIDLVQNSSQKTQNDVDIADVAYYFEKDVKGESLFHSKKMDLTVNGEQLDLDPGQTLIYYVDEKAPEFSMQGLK
Protocol: (§1) The expressions of the antigen constructs is described in U.S. Pat. No. 8,846,042. The antigen constructs were diluted to 0.02 mg/mL with dilution(PBS, 0.1% BSA, 0.02% Tween-20, 0.05% NaN3), and then immobilized on an anti-hIgG Fc capture (AHC) biosensor. […] The control wells containing only PBS were also set up. The detection results were analyzed using ForteBio Data Acquisition and ForteBio Data Analysis software.

[2] = biological target: T2, human EpCAM on SW480 cells (human, UniProt P16422 24-314); assay: flow cytometry on SW480 cells expressing human EpCAM
T2 construct: whole, on cells; also called SW480 cells expressing human EpCAM; human colon cancer cell line SW480
T2 sequence (looked up): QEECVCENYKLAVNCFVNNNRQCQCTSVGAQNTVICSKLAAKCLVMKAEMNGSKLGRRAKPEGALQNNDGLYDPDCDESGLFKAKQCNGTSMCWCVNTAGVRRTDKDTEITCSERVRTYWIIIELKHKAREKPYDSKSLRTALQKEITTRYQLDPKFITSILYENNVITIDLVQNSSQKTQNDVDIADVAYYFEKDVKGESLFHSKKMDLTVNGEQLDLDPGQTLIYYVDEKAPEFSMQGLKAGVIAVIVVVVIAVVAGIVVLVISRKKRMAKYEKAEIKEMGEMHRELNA
Protocol: (§2) SW480 cells and CyEpCAM-CHO cells were trypsinized with 0.25% Trypsin-EDTA (Gibco), resuspended with a FACS buffer. […] Cells were then washed with the FACS buffer and resuspended in 50 μL FACS buffer. Mouse anti-Human IgG Fab Secondary Antibody PE conjugate(Invitrogen) were added, and allowed for incubation at 4° C. for 30 min. 150 μL FACS buffer was finally added, and the samples were analyzed using ACCURI® C6 Cytometer (BD Biosciences).

[3] = biological target: T3, cynomolgus monkey EpCAM on transfected CHO cells (CyEpCAM-CHO) (cynomolgus monkey); assay: flow cytometry on CHO cells expressing cynomolgus monkey EpCAM (CyEpCAM-CHO)
T3 construct: whole, on cells; also called CHO cells expressing cynomolgus monkey EpCAM on the cell surface
Protocol: as §2

[4] = biological target: T1, huEpCAM.Fc (human EpCAM antigen …); assay: BLI (Octet QKe), antigen-Fc captured on AHC biosensor, ITAB1002 in solution
Protocol: as §1

[5] = biological target: cynoEpCAM.Fc (cynomolgus EpCAM antigen construct) (cynomolgus monkey; human); assay: as above
Protocol: as §1

[6] = biological target: T4, cynoCD3ε AA 1-27.Fc (cynomolgus CD3 antigen construct) (cynomolgus monkey; human, UniProt Q95LI5 22-48); assay: as above
T4 construct: range 1-27; not shown: human IgG Fc
T4 chain (looked up): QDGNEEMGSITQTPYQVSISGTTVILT
Protocol: as §1

human CD3 on human PBMC = biological target: T5, human CD3 on human PBMC (human, UniProt P07766 23-207); assay: flow cytometry (FACS) on human PBMC, detection with PE mouse anti-human lambda light chain, co-staining with CD4 antibody; y axis Binding rate (%)
T5 construct: whole, on cells; also called hPBMC; huPBMC
Protocol: Cells were washed with the FACS buffer once, resuspended in 50 μL FACS buffer, supplemented with CD4 Antibody (RFT-4g) APC-Cy7® conjugate(Invitrogen) and PE Mouse Anti-Human Light Chain […], (BD Pharmingen™), and incubated at room temperature for 45 min. 150 μL FACS buffer was finally added, and the samples were analyzed using ACCURI® C6 Cytometer (BD Biosciences).

T5 sequence (P07766 23-207): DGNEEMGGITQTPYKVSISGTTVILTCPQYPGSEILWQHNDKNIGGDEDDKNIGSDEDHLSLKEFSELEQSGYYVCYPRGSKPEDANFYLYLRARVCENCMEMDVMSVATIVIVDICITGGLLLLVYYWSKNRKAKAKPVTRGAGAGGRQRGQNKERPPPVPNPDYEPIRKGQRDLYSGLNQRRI
T3 sequence (Q1WER1 24-314): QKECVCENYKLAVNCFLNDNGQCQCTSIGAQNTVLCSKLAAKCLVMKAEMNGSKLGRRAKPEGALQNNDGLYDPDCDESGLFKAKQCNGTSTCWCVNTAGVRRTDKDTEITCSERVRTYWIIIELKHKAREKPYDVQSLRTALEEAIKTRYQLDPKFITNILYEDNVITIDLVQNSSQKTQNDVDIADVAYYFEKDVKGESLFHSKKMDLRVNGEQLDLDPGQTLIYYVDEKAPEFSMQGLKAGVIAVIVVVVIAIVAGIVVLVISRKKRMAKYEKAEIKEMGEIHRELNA

B1: ITAB1012 (EpCAM×CD3 Fab fusion protein with a different EpCAM scFv) (bispecific antibody)
heavy: EVQLVESGGGLVQPGGSLRLSCAASGFTFSNYWMSWVRQAPGKGLEWVANIKQDGSEKFYVDSVKGRFTISRDNAKNSLYLQMNSLRAEDMAVYYCARVGGAWELGYWGQGTLVTVSAGGGGSGGGGSGGGGSGAQSVLTQPPSVSGAPGQRVTISCTGSSSNIGSYYGVHWYQQLPGTAPKLLIYSDTNRPSGVPDRFSGSKSGTSASLAITGLQAEDEADYYCQSYDSSLSGRVFGGGTKLTVLGGEVQLVESGGGLVQPGGSLRLSCAASGFTFNTYAMNWVRQAPGKGLEWVARIRSKYNNYATYYADSVKDRFTISRDDSKNTLYLQMNSLRAEDTAVYYCVRHGNFGNSYVSWFAYWGQGTMVTVSSASTKGPSVFPLAPSSKSTSGGTAALGCLVKDYFPEPVTVSWNSGALTSGVHTFPAVLQSSGLYSLSSVVTVPSSSLGTQTYICNVNHKPSNTKVDKKVEPKSCPPCS
light: EVQLVESGGGLVQPGGSLRLSCAASGFTFSNYWMSWVRQAPGKGLEWVANIKQDGSEKFYVDSVKGRFTISRDNAKNSLYLQMNSLRAEDMAVYYCARVGGAWELGYWGQGTLVTVSAGGGGSGGGGSGGGGSGAQSVLTQPPSVSGAPGQRVTISCTGSSSNIGSYYGVHWYQQLPGTAPKLLIYSDTNRPSGVPDRFSGSKSGTSASLAITGLQAEDEADYYCQSYDSSLSGRVFGGGTKLTVLGGQAVVTQEPSLTVSPGGTVTLTCRSSTGAVTTSNYANWVQQKPGQAPRGLIGGTNKRAPGTPARFSGSLLGGKAALTLSGVQPEDEAEYYCALWYSNLWVFGGGTKLTVLGQPKAAPSVTLFPPSSEELQANKATLVCLISDFYPGAVTVAWKADSSPVKAGVETTTPSKQSNNKYAASSYLSLTPEQWKSHRSYSCQVTHEGSTVEKTVAPTECPPCS
notes: Its EpCAM scFv has different HVRs from that of ITAB1002; It has the same anti-CD3 Fab and was transiently expressed; also called EpCAMA×CD3 Fab fusion protein
- Kd [1]: 47.8 nM
- koff [1]: 0.00647 s⁻¹
- kon [1]: 135000 M⁻¹ s⁻¹

B2: ITAB1002 (exemplary EpCAM×CD3 Fab fusion protein) (bispecific antibody)
heavy: EVQLVESGGGLVQPGGSLRLSCAASGFTFSNYWMSWVRQAPGKGLEWVANIKQDGSEKFYADSVKGRFTISRDNAKNSLYLQMNSLRAEDTAVYYCARVGPSWEQDYWGQGTLVTVSAGGGGSGGGGSGGGGSGAQSVLTQPPSVSGAPGQRVTISCTGSSSNIGSYYGVHWYQQLPGTAPKLLIYSDTNRPSGVPDRFSGSKSGTSASLAITGLQAEDEADYYCQSYDKGFGHRVFGGGTKLTVLGGEVQLVESGGGLVQPGGSLRLSCAASGFTFNTYAMNWVRQAPGKGLEWVARIRSKYNNYATYYADSVKDRFTISRDDSKNTLYLQMNSLRAEDTAVYYCVRHGNFGNSYVSWFAYWGQGTMVTVSSASTKGPSVFPLAPSSKSTSGGTAALGCLVKDYFPEPVTVSWNSGALTSGVHTFPAVLQSSGLYSLSSVVTVPSSSLGTQTYICNVNHKPSNTKVDKKVEPKSCPPCS
light: EVQLVESGGGLVQPGGSLRLSCAASGFTFSNYWMSWVRQAPGKGLEWVANIKQDGSEKFYADSVKGRFTISRDNAKNSLYLQMNSLRAEDTAVYYCARVGPSWEQDYWGQGTLVTVSAGGGGSGGGGSGGGGSGAQSVLTQPPSVSGAPGQRVTISCTGSSSNIGSYYGVHWYQQLPGTAPKLLIYSDTNRPSGVPDRFSGSKSGTSASLAITGLQAEDEADYYCQSYDKGFGHRVFGGGTKLTVLGGQAVVTQEPSLTVSPGGTVTLTCRSSTGAVTTSNYANWVQQKPGQAPRGLIGGTNKRAPGTPARFSGSLLGGKAALTLSGVQPEDEAEYYCALWYSNLWVFGGGTKLTVLGQPKAAPSVTLFPPSSEELQANKATLVCLISDFYPGAVTVAWKADSSPVKAGVETTTPSKQSNNKYAASSYLSLTPEQWKSHRSYSCQVTHEGSTVEKTVAPTECPPCS
notes: An anti-EpCAM scFv is fused to the N-terminus of each chain of an anti-CD3 Fab; there is no Fc; also called EpCAM x CD3 Fab fusion protein; ITB1002
- EC50 [2]: 0.411 µg/mL
- Kd [1]: 2.49 nM
- koff [1]: 4.98e-05 s⁻¹
- kon [1]: 20000 M⁻¹ s⁻¹
- EC50 [3]: 0.108 µg/mL
- Kd [4]: 3.49 nM
- Kd [5]: 4.71 nM
- Kd [6]: 15.6 nM
- EC50 (read off the curve) (human CD3 on human PBMC): ~0.1 µg/mL
